Assays:
[1] = molecular target: T1, SARS-CoV-2 Spike RBD E484K (SARS-CoV-2, UniProt P0DTC2 319-541); assay: HTRF, soluble RBD construct
T1 construct: domain: RBD

[2] = molecular target: T2, SARS-CoV-2 Spike RBD Y453F (SARS-CoV-2, UniProt P0DTC2 319-541); assay: HTRF, soluble RBD construct
T2 construct: domain: RBD

[3] = molecular target: T3, SARS-CoV-2 Spike RBD K444R (SARS-CoV-2, UniProt P0DTC2 319-541); assay: HTRF, soluble RBD construct
T3 construct: domain: RBD

[4] = molecular target: T4, SARS-CoV-2 Spike RBD N501Y (SARS-CoV-2, UniProt P0DTC2 319-541); assay: HTRF, soluble RBD construct
T4 construct: domain: RBD

[5] = molecular target: T5, SARS-CoV-2 Spike RBD N439K (SARS-CoV-2, UniProt P0DTC2 319-541); assay: HTRF, soluble RBD construct
T5 construct: domain: RBD

[6] = molecular target: T6, SARS-CoV-2 Spike RBD K417N (SARS-CoV-2, UniProt P0DTC2 319-541); assay: HTRF, soluble RBD construct
T6 construct: domain: RBD

[7] = molecular target: T2, SARS-CoV-2 Spike RBD Y453F; assay: HTRF, soluble RBD construct; remark: listed apart in the source
[8] = molecular target: T7, SARS-CoV-2 Spike RBD A475V (SARS-CoV-2, UniProt P0DTC2 319-541); assay: HTRF, soluble RBD construct
T7 construct: domain: RBD

[9] = molecular target: T8, SARS-CoV-2 Spike RBD A352S (SARS-CoV-2, UniProt P0DTC2 319-541); assay: HTRF, soluble RBD construct
T8 construct: domain: RBD

[10] = molecular target: T4, SARS-CoV-2 Spike RBD N501Y; assay: HTRF, soluble RBD construct; remark: listed apart in the source
[11] = molecular target: T5, SARS-CoV-2 Spike RBD N439K; assay: HTRF, soluble RBD construct; remark: listed apart in the source
[12] = molecular target: T9, SARS-CoV-2 Spike RBD E406Q (SARS-CoV-2, UniProt P0DTC2 319-541); assay: HTRF, soluble RBD construct
T9 construct: domain: RBD

[13] = molecular target: T6, SARS-CoV-2 Spike RBD K417N; assay: HTRF, soluble RBD construct; remark: listed apart in the source
[14] = molecular target: T10, SARS-CoV-2 Spike S1 domain K417N, E484K, N501Y, D614G (SARS-CoV-2, UniProt P0DTC2 16-685); assay: HTRF, soluble S1 construct
T10 construct: domain: S1; also called S. African (K417N, E484K, N501Y, D614G); B.1.351

[15] = molecular target: T11, SARS-CoV-2 Spike S1 domain ΔHV69/70, Y453F, D614G (SARS-CoV-2, UniProt P0DTC2 16-685); assay: HTRF, soluble S1 construct
T11 construct: domain: S1; also called Denmark (ΔHV69/70, Y453F, D614G); DHV69/70, Y453F, D614G

[16] = molecular target: T12, SARS-CoV-2 Spike S1 domain ΔHV69/70, N501Y, D614G (SARS-CoV-2, UniProt P0DTC2 16-685); assay: HTRF, soluble S1 construct
T12 construct: domain: S1; also called U.K. partial (ΔHV69/70, N501Y D614G)

[17] = molecular target: T13, SARS-CoV-2 Spike S1 domain A222S, D614G (SARS-CoV-2, UniProt P0DTC2 16-685); assay: HTRF, soluble S1 construct
T13 construct: domain: S1; also called Spanish (A222S, D614G)

[18] = molecular target: T14, SARS-CoV-2 Spike S1 domain ΔHV69/70, ΔY144, N501Y, A570D, D614G, P681H (SARS-CoV-2, UniProt P0DTC2 16-685); assay: HTRF, soluble S1 construct
T14 construct: domain: S1; also called U.K. (B.1.1.7); DHV69/70, DY144, N501Y, A570D, D614G, P681H

[19] = molecular target: T15, SARS-CoV-2 Spike S1 domain D614G (SARS-CoV-2, UniProt P0DTC2 16-685); assay: HTRF, soluble S1 construct
T15 construct: domain: S1

[20] = molecular target: T10, SARS-CoV-2 Spike S1 domain K417N, …; assay: HTRF, soluble S1 construct; remark: listed apart in the source
[21] = molecular target: T11, SARS-CoV-2 Spike S1 domain ΔHV69/70, …; assay: HTRF, soluble S1 construct; remark: listed apart in the source
[22] = molecular target: T13, SARS-CoV-2 Spike S1 domain A222S, D614G; assay: HTRF, soluble S1 construct; remark: listed apart in the source
[23] = molecular target: T14, SARS-CoV-2 Spike S1 domain ΔHV69/70, …; assay: HTRF, soluble S1 construct; remark: listed apart in the source
[24] = molecular target: T15, SARS-CoV-2 Spike S1 domain D614G; assay: HTRF, soluble S1 construct; remark: listed apart in the source
[25] = molecular target: Spike protein D614G (SARS-CoV-2/human/Germany/BavPat 1/2020) on pseudovirus or live virus (SARS-CoV-2, UniProt P0DTC2 14-1273); assay: cell-based or functional assay
[26] = molecular target: Spike protein of the U.K. (B.1.1.7, Alpha) variant on pseudovirus or live virus (SARS-CoV-2, UniProt P0DTC2 14-1273); assay: cell-based or functional assay

B1: PR193_00018 (antibody, V domains shown)
VH: EVQLVESGGGLVQPGGSLRLSCSASGFTFSSFWMSWVRQAPGKGLEWVATIREDGSEKYYVDSVKGRFSISRDNAKNSLYLQMNSLRAEDTAVYYCARSKWLRGSFDYWGQGTLVTVSS
VL: NFMLTQPHSVSESPGKTVTISCTRRSGSIASNYVQWYQQRPGSAPTTVIYEDNQRPSGVPDRFSGSIDSSSNSASLTISGLQTEDEADYYCQSYDSSNPPGASWVFGGGTKLTVL
notes: also called IMM20184; IMM200184
EC50 [1]: 0.0205 nM | EC50 [2]: 0.0494 nM | EC50 [3]: 0.0194 nM | EC50 [4]: 0.0398 nM | EC50 [5]: 0.051 nM | EC50 [6]: 0.0437 nM | fold over background [7]: 4.74 fold over background | fold over background [8]: 4.42 fold over background | fold over background [9]: 4.62 fold over background | fold over background [10]: 4.92 fold over background | fold over background [11]: 4.43 fold over background | fold over background [12]: 6.58 fold over background | fold over background [13]: 3.64 fold over background | EC50 [14]: 0.0267 nM | EC50 [15]: 0.0316 nM | EC50 [16]: 0.0143 nM | EC50 [17]: 0.0269 nM | EC50 [18]: 0.0455 nM | EC50 [19]: 0.0397 nM | fold over background [20]: 4.64 fold over background | fold over background [21]: 5.61 fold over background | fold over background [22]: 5.43 fold over background | fold over background [23]: 4.15 fold over background | fold over background [24]: 4.93 fold over background | IC50, neutralization of live virus in a virus internalization assay [25]: 33.8 nM | IC80, neutralization of live virus in a virus internalization assay [25]: 126 nM | IC90, neutralization of live virus in a virus internalization assay [25]: 236 nM | IC50, neutralization of live virus in a virus internalization assay [26]: 43.3 nM | IC80, neutralization of live virus in a virus internalization assay [26]: > 394 nM | IC90, neutralization of live virus in a virus internalization assay [26]: > 394 nM

B2: PR194_00232 (antibody, V domains shown)
VH: EVQLVESGGGLVQPGGSLRLSCSASGFTVSSNYMSWVRQAPRKGLEWVSVIYAGGSTFYADSVKGRFTISRDNSKNTLLLQMNSLRAEDTAVYYCARDRGGYLDYWGQGTLVTVSS
VL: DIQMTQSPSSLSASVGDRVTITCRASQGISNYLAWYQQKPGKVPKLLIYAASTLQSGVPSRFSGSGSGTDFTLTISSLQPEDVATYYCQKYNSAPGLTFGGGTKVEIK
notes: also called IMM20190; PR194_00190
EC50 [1]: 0.0334 nM | EC50 [2]: 0.0646 nM | EC50 [3]: 0.0258 nM | EC50 [4]: 0.279 nM | EC50 [5]: 0.0689 nM | EC50 [6]: > 0.5 nM | fold over background [7]: 5.94 fold over background | fold over background [8]: 7.47 fold over background | fold over background [9]: 6.75 fold over background | fold over background [10]: 4.3 fold over background | fold over background [11]: 5.95 fold over background | fold over background [12]: 8.81 fold over background | fold over background [13]: 2.25 fold over background | EC50 [14]: 0.23 nM | EC50 [15]: 0.0472 nM | EC50 [16]: 0.396 nM | EC50 [17]: 0.0491 nM | EC50 [18]: > 0.5 nM | EC50 [19]: 0.0627 nM | fold over background [20]: 1.12 fold over background | fold over background [21]: 8.18 fold over background | fold over background [22]: 8.47 fold over background | fold over background [23]: 3.91 fold over background | fold over background [24]: 4.84 fold over background | IC50, neutralization of live virus in a virus internalization assay [25]: 0.35 nM | IC80, neutralization of live virus in a virus internalization assay [25]: 1.43 nM | IC90, neutralization of live virus in a virus internalization assay [25]: 3.06 nM | IC50, neutralization of live virus in a virus internalization assay [26]: 2.66 nM | IC80, neutralization of live virus in a virus internalization assay [26]: 13.7 nM | IC90, neutralization of live virus in a virus internalization assay [26]: > 394 nM

B3: PR200_00622 (antibody, V domains shown)
VH: QVQLVESGGGVVQPGRSLRLSCTASGFTFSTYGMHWVRQAPGKGLEWVAVISYDGSSKHYAESVKGRFTISRDNSNNTLYLQMNRLRAEDTAVYYCARDGQPPGWGNYFDYWGQGTLVTVAS
VL: SYVLTQPPSVSVAPGKTARITCGGNGIGSKSVYWYQQKPGQAPEVVVYDDSDRPSGIPERFSGSNSGNTATLTISRVEAGDEADYYCQVWDSSSDPWVFGGGTKLTVL
notes: also called IMM20253; PR200_00253
EC50 [1]: 0.0316 nM | EC50 [2]: 0.0626 nM | EC50 [3]: 0.0261 nM | EC50 [4]: 0.0585 nM | EC50 [5]: 0.0534 nM | EC50 [6]: 0.0674 nM | fold over background [7]: 4.67 fold over background | fold over background [8]: 5.22 fold over background | fold over background [9]: 5.14 fold over background | fold over background [10]: 5.11 fold over background | fold over background [11]: 5.05 fold over background | fold over background [12]: 7.6 fold over background | fold over background [13]: 4.68 fold over background | EC50 [14]: 0.0248 nM | EC50 [15]: 0.0664 nM | EC50 [16]: 0.0216 nM | EC50 [17]: 0.0449 nM | EC50 [18]: 0.0624 nM | EC50 [19]: 0.0624 nM | fold over background [20]: 6.28 fold over background | fold over background [21]: 7 fold over background | fold over background [22]: 6.64 fold over background | fold over background [23]: 5.92 fold over background | fold over background [24]: 6.1 fold over background | IC50, neutralization of live virus in a virus internalization assay [25]: 39.4 nM | IC80, neutralization of live virus in a virus internalization assay [25]: 151 nM | IC90, neutralization of live virus in a virus internalization assay [25]: 289 nM | IC50, neutralization of live virus in a virus internalization assay [26]: 1.38 nM | IC80, neutralization of live virus in a virus internalization assay [26]: 61.1 nM | IC90, neutralization of live virus in a virus internalization assay [26]: 219 nM

Reference: patent publication US20220235118A1 (IMMUNOME, published 2022)
